Values of other authors in article PMC11003968, “Identification of small molecules affecting the interaction between human hemoglobin and Staphylococcus aureus IsdB hemophore” (Scientific Reports, 2024).

Assays:
[1] = biological target: IsdB (Staphylococcus aureus) (UniProt A7X146); assay: SPR
[2] = biological target: oxyhemoglobin dimer (Homo sapiens) (UniProt P69905)

Chain of hemoglobin (P69905 2-142): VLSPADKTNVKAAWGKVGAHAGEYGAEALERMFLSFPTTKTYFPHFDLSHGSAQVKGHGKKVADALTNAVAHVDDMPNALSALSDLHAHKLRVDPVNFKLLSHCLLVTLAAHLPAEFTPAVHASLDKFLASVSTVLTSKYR
Chain of hemoglobin (P68871 2-147, further chain): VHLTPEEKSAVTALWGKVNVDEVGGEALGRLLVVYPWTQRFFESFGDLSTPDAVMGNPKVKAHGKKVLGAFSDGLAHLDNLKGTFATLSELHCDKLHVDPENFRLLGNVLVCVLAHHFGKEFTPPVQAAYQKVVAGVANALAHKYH
Chain of oxyhemoglobin dimer (P69905 2-142): as the sequence (P69905 2-142) above
Chain of oxyhemoglobin dimer (P68871 2-147, further chain): as the sequence (P68871 2-147, further chain) above
Chain of IsdB (Staphylococcus aureus) (A7X146 41-613): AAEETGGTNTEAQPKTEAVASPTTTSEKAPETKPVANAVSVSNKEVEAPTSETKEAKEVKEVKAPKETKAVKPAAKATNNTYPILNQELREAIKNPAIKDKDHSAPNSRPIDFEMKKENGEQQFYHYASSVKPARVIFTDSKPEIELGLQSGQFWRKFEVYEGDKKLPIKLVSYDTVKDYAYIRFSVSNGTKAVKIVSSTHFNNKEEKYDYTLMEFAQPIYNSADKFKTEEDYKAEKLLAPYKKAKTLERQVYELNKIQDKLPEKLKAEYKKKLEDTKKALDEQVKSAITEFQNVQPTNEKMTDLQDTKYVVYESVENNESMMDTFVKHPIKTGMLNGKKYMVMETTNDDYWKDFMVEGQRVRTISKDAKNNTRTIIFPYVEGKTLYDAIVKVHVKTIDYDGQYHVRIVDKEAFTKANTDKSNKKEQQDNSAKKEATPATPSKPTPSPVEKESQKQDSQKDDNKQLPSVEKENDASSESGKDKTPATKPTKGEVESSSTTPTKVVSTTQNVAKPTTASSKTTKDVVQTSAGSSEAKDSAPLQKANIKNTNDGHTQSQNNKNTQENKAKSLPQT

| Kd [2] [µM] | Substance | Kd [1] [µM] |
| --- | --- | --- |
| – | hemoglobin (from UniProt P69905) | 0.035 |
| 0.25 | oxyhemoglobin dimer (from UniProt P69905) | – |
